Laboratory results as given in US20240309113A1 (SUZHOU TRANSCENTA THERAPEUTICS, published 2024).
Read-outs that look alike come from different tables or passages of the source.

Legend:
Rat MASP2 = target: T1, Rat MASP2 (rat, UniProt Q9JJS8); assay: ELISA; plate coated with rat MASP2 (1 ug/ml), serially diluted antibody, mouse anti-human IgG4 Fc HRP, OD450
T1 construct: purchased protein coated on the ELISA plate at 1 ug/ml

Mouse MASP2 = target: T2, Mouse MASP2 (mouse, UniProt Q91WP0); assay: ELISA; plate coated with mouse MASP2 (1 ug/ml), serially diluted antibody, mouse anti-human IgG4 Fc HRP, OD450
T2 construct: purchased protein coated on the ELISA plate at 1 ug/ml

Cyno MASP2 = target: T3, Cyno MASP2; assay: ELISA; plate coated with cynomolgus MASP2 (1 ug/ml), serially diluted antibody, mouse anti-human IgG4 Fc HRP, OD450
T3 construct: Recombinant coated protein; distinct from m29 (native MASP-2 in cynomolgus serum); also called cynomolgus MASP-2 (recombinant, generated in house)

[1] = target: T4, human MASP-2 protein (recombinant, full-length, C-terminal tag) (human, UniProt O00187 16-686); assay: BLI (ForteBio Octet RED96), antibody on Protein A biosensor, human MASP-2 in solution (100, 50, 25 nM)
T4 construct: The protein was secreted and purified on an anti-FLAG or anti-HIS column; also called hMASP-2; Full-length human MASP-2 protein; not shown: C-terminal HIS-tag or FLAG-tag

[2] = target: T4, human MASP-2 protein (recombinant, …); assay: as above; remark: listed apart in the source

T4 sequence (O00187 16-686): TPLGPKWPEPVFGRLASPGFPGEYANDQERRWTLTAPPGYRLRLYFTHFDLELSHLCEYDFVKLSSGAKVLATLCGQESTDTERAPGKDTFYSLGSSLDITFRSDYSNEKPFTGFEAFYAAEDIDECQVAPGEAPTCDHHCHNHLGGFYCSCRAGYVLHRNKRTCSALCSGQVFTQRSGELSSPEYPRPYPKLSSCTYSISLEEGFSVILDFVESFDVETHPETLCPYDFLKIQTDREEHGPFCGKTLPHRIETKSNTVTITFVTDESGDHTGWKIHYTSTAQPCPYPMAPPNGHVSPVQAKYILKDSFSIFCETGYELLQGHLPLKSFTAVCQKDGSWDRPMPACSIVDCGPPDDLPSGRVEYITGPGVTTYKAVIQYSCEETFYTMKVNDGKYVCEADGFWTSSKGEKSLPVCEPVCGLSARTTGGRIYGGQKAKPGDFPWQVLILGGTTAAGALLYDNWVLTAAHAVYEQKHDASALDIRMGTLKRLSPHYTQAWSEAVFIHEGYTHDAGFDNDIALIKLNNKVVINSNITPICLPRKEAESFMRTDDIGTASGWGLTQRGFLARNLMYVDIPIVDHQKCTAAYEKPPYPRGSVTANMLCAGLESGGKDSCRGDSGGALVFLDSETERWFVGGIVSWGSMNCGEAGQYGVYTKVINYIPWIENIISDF
T1 sequence (Q9JJS8 20-685 limits assumed): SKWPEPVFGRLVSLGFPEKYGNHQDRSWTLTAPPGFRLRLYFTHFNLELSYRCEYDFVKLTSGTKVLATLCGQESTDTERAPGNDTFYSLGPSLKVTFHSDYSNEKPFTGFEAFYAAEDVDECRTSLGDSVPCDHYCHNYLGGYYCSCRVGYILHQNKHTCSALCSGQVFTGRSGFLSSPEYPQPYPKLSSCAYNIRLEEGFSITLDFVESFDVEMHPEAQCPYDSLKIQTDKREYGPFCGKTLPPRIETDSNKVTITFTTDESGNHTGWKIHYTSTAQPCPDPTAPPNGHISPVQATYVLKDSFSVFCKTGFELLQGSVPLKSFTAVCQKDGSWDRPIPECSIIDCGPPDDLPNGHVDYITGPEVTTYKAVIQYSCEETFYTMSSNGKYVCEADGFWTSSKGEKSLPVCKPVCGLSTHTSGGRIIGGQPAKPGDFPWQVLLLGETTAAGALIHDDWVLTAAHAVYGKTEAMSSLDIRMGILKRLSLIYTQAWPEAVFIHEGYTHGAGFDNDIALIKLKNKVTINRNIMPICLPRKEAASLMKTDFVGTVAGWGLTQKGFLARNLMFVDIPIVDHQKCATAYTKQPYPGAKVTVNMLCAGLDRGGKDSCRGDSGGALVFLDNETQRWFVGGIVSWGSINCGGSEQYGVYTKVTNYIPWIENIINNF
T3 sequence (MASP-2 polypeptide, as listed by the source limits assumed): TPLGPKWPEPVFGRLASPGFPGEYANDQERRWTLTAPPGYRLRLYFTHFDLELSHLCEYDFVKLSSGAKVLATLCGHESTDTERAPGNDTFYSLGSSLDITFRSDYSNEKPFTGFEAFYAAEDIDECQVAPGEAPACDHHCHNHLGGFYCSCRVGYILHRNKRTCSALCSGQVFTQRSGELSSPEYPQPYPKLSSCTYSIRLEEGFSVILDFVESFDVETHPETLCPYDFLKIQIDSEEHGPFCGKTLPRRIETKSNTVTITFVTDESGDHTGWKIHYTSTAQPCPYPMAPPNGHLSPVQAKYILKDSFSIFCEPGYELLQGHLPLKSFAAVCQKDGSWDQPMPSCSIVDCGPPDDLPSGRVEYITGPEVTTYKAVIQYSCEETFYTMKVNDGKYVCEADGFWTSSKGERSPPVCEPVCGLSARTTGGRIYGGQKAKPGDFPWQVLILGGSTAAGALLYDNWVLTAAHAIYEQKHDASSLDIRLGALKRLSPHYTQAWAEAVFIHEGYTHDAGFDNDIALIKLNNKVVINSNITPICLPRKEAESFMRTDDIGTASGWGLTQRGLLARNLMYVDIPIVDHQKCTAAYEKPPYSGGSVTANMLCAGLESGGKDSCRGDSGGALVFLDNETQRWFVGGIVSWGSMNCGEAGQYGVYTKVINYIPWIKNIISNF
T2 sequence (Q91WP0 20-685 limits assumed): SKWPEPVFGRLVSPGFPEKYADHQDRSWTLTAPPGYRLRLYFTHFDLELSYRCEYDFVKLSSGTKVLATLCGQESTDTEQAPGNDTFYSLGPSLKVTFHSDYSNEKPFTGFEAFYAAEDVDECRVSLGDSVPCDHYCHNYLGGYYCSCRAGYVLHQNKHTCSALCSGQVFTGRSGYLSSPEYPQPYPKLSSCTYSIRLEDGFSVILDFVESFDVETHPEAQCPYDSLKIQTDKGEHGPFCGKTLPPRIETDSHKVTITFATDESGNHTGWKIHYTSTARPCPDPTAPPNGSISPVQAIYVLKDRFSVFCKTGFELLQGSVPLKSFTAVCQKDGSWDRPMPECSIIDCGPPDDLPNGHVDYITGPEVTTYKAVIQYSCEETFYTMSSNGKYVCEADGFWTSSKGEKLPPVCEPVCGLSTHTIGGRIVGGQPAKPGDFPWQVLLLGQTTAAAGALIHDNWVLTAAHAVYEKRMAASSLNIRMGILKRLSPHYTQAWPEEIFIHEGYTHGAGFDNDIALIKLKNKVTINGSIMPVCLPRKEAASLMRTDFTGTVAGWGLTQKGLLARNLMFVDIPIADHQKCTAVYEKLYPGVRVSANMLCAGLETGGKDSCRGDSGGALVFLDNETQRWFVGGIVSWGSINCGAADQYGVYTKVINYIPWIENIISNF

| Binder | Kd [2] | koff [2] | kon [2] | also measured |
| --- | --- | --- | --- | --- |
| OMS721 (hIgG4 kappa) (antibody, V domains shown, Benchmark antibody with the variable regions of OMS721 (Narsoplimab) and the constant region of human IgG4; also called OMS721-analog) VH: QVTLKESGPVLVKPTETLTLTCTVSGFSLSRGKMGVSWIRQPPGKALEWLAHIFSSDEKSYRTSLKSRLTISKDTSKNQVVLTMTNMDPVDTATYYCARIRRGGIDYWGQGTLVTVSS VL: QPVLTQPPSLSVSPGQTASITCSGEKLGDKYAYWYQQKPGQSPVLVMYQDKQRPSGIPERFSGSNSGNTATLTISGTQAMDEADYYCQAWDSSTAVFGGGTKLTVLR | – | – | – | EC50 (Rat MASP2): 12.3 µg/mL; EC50 (Mouse MASP2): 4.91 µg/mL; EC50 (Cyno MASP2): 0.0181 µg/mL |
| 129C10H2C1 (hybridoma antibody 129C10, mouse) (antibody, V domains shown, Mouse monoclonal antibody purified from hybridoma supernatant; The label 129C10H2C1 is read as a subclone of 129C10; also called 129C10 mouse/chimeric) VH: QVQLQQSGPELEKPGTSVKISCEASGYTFTDYYINWVQQRPGQGLEWIGWIFPGSESAYHSEKFKAKATLTVDTSSTTAYMLLTSLTSEDSAVYFCTRGDRSGPFAYWGQGTLVTVSA VL: not shown | – | – | – | Kd [1]: 0.746 nM; koff [1]: 4.78e-05 s⁻¹; kon [1]: 64000 M⁻¹ s⁻¹ |
| 125D5G1G2 (hybridoma antibody 125D5, mouse) (antibody, V domains shown, Mouse monoclonal antibody purified from hybridoma supernatant; The label 125D5G1G2 is read as a subclone of 125D5; also called 125D5 mouse/chimeric) VH: QVQLQQSGPDLVKPGTSVKISCTASGYTFTDYYINWVKQRPGQGLEWIGWIFPGSGSPYYNENFKGRAMFTVDYSSSSAYMLLSSLTSEDSAVYFCTRGDRSGPFAYWGQGTLVTVSA VL: not shown | – | – | – | Kd [1]: 1.64 nM; koff [1]: 9.73e-05 s⁻¹; kon [1]: 59400 M⁻¹ s⁻¹ |
| 129C10 HdLb (antibody, human IgG4, V domains shown, Humanized) VH: QVQLVQSGAEVKKPGASVKVSCKASGYTFTDYYINWVRQAPGQGLEWMGWIFPGSESAYHSQKFQGRATLTVDTSISTAYMELSRLRSDDTAVYYCTRGDRSGPFAYWGQGTLVTVSS VL: DVVMTQSPLSLPVTLGQPASISCKSSQSLLYSNGKTYLNWLQQRPGQSPRRLIYLVSKLDSGVPDRFSGSGSGADFTLKISRVEAEDVGVYYCVQVTHFPFTFGQGTKLEIK | < 0.001 nM | < 1e-07 s⁻¹ | 36000 M⁻¹ s⁻¹ | – |
| 129C10 HaLb (antibody, human IgG4, V domains shown, Humanized) VH: QVQLVQSGAEVKKPGASVKVSCKASGYTFTDYYINWVRQAPGQGLEWMGWIFPGSESAYHSEKFKARVTMTVDTSISTAYMELSRLRSDDTAVYYCTRGDRSGPFAYWGQGTLVTVSS VL: DVVMTQSPLSLPVTLGQPASISCKSSQSLLYSNGKTYLNWLQQRPGQSPRRLIYLVSKLDSGVPDRFSGSGSGADFTLKISRVEAEDVGVYYCVQVTHFPFTFGQGTKLEIK | 11.4 nM | 0.000291 s⁻¹ | 25500 M⁻¹ s⁻¹ | – |
| 129C10 HbLa (antibody, human IgG4, V domains shown, Humanized) VH: QVQLVQSGAEVKKPGASVKVSCKASGYTFTDYYINWVRQAPGQGLEWMGWIFPGSESAYHSEKFKARATLTVDTSISTAYMELSRLRSDDTAVYYCTRGDRSGPFAYWGQGTLVTVSS VL: DVVMTQSPLSLPVTLGQPASISCKSSQSLLYSNGKTYLNWLQQRPGQSPRRLIYLVSKLDSGVPDRFSGSGSGTDFTLKISRVEAEDVGVYYCVQVTHFPFTFGQGTKLEIK | < 0.001 nM | < 1e-07 s⁻¹ | 32900 M⁻¹ s⁻¹ | – |
| 129C10 HbLb (antibody, human IgG4, V domains shown, Humanized) VH: QVQLVQSGAEVKKPGASVKVSCKASGYTFTDYYINWVRQAPGQGLEWMGWIFPGSESAYHSEKFKARATLTVDTSISTAYMELSRLRSDDTAVYYCTRGDRSGPFAYWGQGTLVTVSS VL: DVVMTQSPLSLPVTLGQPASISCKSSQSLLYSNGKTYLNWLQQRPGQSPRRLIYLVSKLDSGVPDRFSGSGSGADFTLKISRVEAEDVGVYYCVQVTHFPFTFGQGTKLEIK | < 0.001 nM | < 1e-07 s⁻¹ | 32900 M⁻¹ s⁻¹ | – |
| 129C10 HcLa (antibody, human IgG4, V domains shown, Humanized) VH: QVQLVQSGAEVKKPGASVKVSCKASGYTFTDYYINWVRQAPGQGLEWMGWIFPGSESAYHSQKFQGRVTMTVDTSISTAYMELSRLRSDDTAVYYCTRGDRSGPFAYWGQGTLVTVSS VL: DVVMTQSPLSLPVTLGQPASISCKSSQSLLYSNGKTYLNWLQQRPGQSPRRLIYLVSKLDSGVPDRFSGSGSGTDFTLKISRVEAEDVGVYYCVQVTHFPFTFGQGTKLEIK | < 0.001 nM | < 1e-07 s⁻¹ | 35200 M⁻¹ s⁻¹ | – |
| 129C10 HcLb (antibody, human IgG4, V domains shown, Humanized) VH: QVQLVQSGAEVKKPGASVKVSCKASGYTFTDYYINWVRQAPGQGLEWMGWIFPGSESAYHSQKFQGRVTMTVDTSISTAYMELSRLRSDDTAVYYCTRGDRSGPFAYWGQGTLVTVSS VL: DVVMTQSPLSLPVTLGQPASISCKSSQSLLYSNGKTYLNWLQQRPGQSPRRLIYLVSKLDSGVPDRFSGSGSGADFTLKISRVEAEDVGVYYCVQVTHFPFTFGQGTKLEIK | 1.36 nM | 4.56e-05 s⁻¹ | 33700 M⁻¹ s⁻¹ | – |
| 129C10 HdLa (antibody, human IgG4, V domains shown, Humanized) VH: QVQLVQSGAEVKKPGASVKVSCKASGYTFTDYYINWVRQAPGQGLEWMGWIFPGSESAYHSQKFQGRATLTVDTSISTAYMELSRLRSDDTAVYYCTRGDRSGPFAYWGQGTLVTVSS VL: DVVMTQSPLSLPVTLGQPASISCKSSQSLLYSNGKTYLNWLQQRPGQSPRRLIYLVSKLDSGVPDRFSGSGSGTDFTLKISRVEAEDVGVYYCVQVTHFPFTFGQGTKLEIK | 17.1 nM | 0.000425 s⁻¹ | 24900 M⁻¹ s⁻¹ | – |
| 160D10 (hybridoma antibody, mouse) (antibody, V domains shown, Mouse monoclonal antibody purified from hybridoma supernatant; also called 160D10 mouse/chimeric) VH: QVQLQQSGPELVKPGASVKISCKASGYTFTDYYINWVKQRPGQGLEWVGWIFPGSDSAYYNEKFKGKATLTVDTSSSTAYMLLSSLTSEDSAVYFCARGDRSGPFPYWGQGTLVTVSA VL: not shown | – | – | – | Kd [1]: 27.8 nM; koff [1]: 0.001 s⁻¹; kon [1]: 36100 M⁻¹ s⁻¹ |
| 129C10chiIgG4 (chimeric 129C10, human IgG4 kappa) (antibody, V domains shown, also called 129C10 mouse/chimeric) VH: QVQLQQSGPELEKPGTSVKISCEASGYTFTDYYINWVQQRPGQGLEWIGWIFPGSESAYHSEKFKAKATLTVDTSSTTAYMLLTSLTSEDSAVYFCTRGDRSGPFAYWGQGTLVTVSA VL: not shown | 8.02 nM | 0.000206 s⁻¹ | 25700 M⁻¹ s⁻¹ | – |
| 160D10chiIgG4 (chimeric 160D10, human IgG4 kappa) (antibody, V domains shown, also called 160D10 mouse/chimeric) VH: QVQLQQSGPELVKPGASVKISCKASGYTFTDYYINWVKQRPGQGLEWVGWIFPGSDSAYYNEKFKGKATLTVDTSSSTAYMLLSSLTSEDSAVYFCARGDRSGPFPYWGQGTLVTVSA VL: not shown | 0.984 nM | 3.34e-05 s⁻¹ | 34000 M⁻¹ s⁻¹ | – |
| 125D5chiIgG4 (chimeric 125D5, human IgG4 kappa) (antibody, V domains shown, also called 125D5chilgG4; 125D5 mouse/chimeric) VH: QVQLQQSGPDLVKPGTSVKISCTASGYTFTDYYINWVKQRPGQGLEWIGWIFPGSGSPYYNENFKGRAMFTVDYSSSSAYMLLSSLTSEDSAVYFCTRGDRSGPFAYWGQGTLVTVSA VL: not shown | 19.5 nM | 0.000499 s⁻¹ | 25600 M⁻¹ s⁻¹ | – |
